Here are results for 3 molecules from US20240101670A1 (Eli Lilly, published 2024).

Where “and” joins values, the source holds several entries; their conditions need not be identical. Identical values can stand only once.

For test [1], the target named is T1, human LAIR1 on cells (human, UniProt Q6GTX8 22-287).
T1 sequence: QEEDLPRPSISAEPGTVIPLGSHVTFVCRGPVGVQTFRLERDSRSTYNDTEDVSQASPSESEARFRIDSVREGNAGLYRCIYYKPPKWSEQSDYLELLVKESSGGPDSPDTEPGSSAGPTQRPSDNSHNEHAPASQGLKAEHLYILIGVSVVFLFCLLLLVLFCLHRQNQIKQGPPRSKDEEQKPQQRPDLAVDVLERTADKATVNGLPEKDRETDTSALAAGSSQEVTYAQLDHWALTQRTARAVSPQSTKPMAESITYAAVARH
Description: cell-based or functional assay.

Test [2] concerns the target cynomolgus monkey LAIR1 on cells (cynomolgus monkey). Description: cell-based or functional assay.
The target of test [3] is T1, human LAIR1 on cells. Description: flow cytometry, primary human CD4+ T cells (endogenous LAIR1). On the procedure: (§1) The anti-human LAIR1 antibodies were evaluated for binding to human and cynomolgus monkey (cyno) LAIR1 engineered cell lines and primary human T cells that endogenously express LAIR1. Jurkat-hLAIR1+ (Jurkat cell overexpressing human LAIR1), Jurkat-LAIR1ko (Jurkat cell knocking out human LAIR1), Jurkat-cyLAIR1+ cells (Jurkat LAIR1ko cell expressing cyno LAIR1), and primary human T cells were incubated with the anti-human LAIR1 test antibodies. […] Cells were then washed and incubated with anti-human IgG Alexa Fluor 647 secondary antibody for 20 minutes at 4° C. Cells were then washed and antibody binding was evaluated by flow cytometry. For primary human T cells, cells were also stained for CD4 and CD8 to delineate CD4+ and CD8+ T cells.

A further test concerns the target T2, LAIR2 (human, UniProt Q6ISS4 22-152).
T2 construct: also called human LAIR2
T2 sequence (looked up): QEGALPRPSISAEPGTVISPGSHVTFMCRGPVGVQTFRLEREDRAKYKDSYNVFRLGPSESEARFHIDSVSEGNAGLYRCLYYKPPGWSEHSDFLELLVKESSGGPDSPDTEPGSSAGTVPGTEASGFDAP
Description: ELISA on hLAIR2, O.D.560 against antibody concentration.

For test [4], the target named is T3, cynomolgus monkey LAIR1 on cells (cynomolgus monkey).
T3 construct: whole, on cells; Jurkat LAIR1ko cells expressing cyno LAIR1; also called cyno LAIR1; cyLAIR1
Description: flow cytometry, Jurkat-cyLAIR1+ cells. On the procedure:
as §1

Test [5] concerns the target T4, soluble, extracellular domain (ECD) of LAIR1 (human, UniProt Q6GTX8 22-163).
T4 construct: Produced recombinantly; also called LAIR1-ECD; LAIR1 ECD protein
T4 chain: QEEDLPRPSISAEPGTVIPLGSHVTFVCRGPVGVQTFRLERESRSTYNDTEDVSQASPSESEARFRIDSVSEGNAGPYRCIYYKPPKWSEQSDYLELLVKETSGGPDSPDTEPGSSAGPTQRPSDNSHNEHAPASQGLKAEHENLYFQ
Description: SPR, Biacore 8K, 37 °C, antibody captured on anti-human kappa, LAIR1-ECD as analyte. On the procedure: Antibody binding affinity and kinetics were determined by surface plasmon resonance (SPR) using a Biacore 8K (Cytivia Life Sciences). Measurements were performed at 37° C. using HBS-EP+ as the running buffer (150 mM sodium chloride, 3 mM EDTA, 0.05% (w/v) surfactant P-20, and 10 mM HEPES, pH7.4). Binding experiments used the soluble, extracellular domain (ECD) of LAIR1 (SEQ ID NO: 17), produced recombinantly, which was diluted to working concentration in HBS-EP+ containing 0.1 mg/mL Bovine serum albumin. Goat anti-Human kappa (Southern Biotech) was immobilized on all eight flow cells of a CM4 sensor chip using an amine coupling kit.
Binding was evaluated using multiple analytical cycles. Each cycle is performed at a flow rate of 30 μL/minute and consists of the following steps: injection of antibody over a different flow cell (25 μL of antibody at 0.5 μg/mL at 10 μL/minute), injection of 75 μL (30 μL/min, for 150 seconds) of each LAIR1-ECD dilution (starting at 1 μM and using three-fold serial dilutions to 1.4 nM for each cycle, with one injection for each concentration) followed by a 1200 second delay for dissociation, and chip surface regeneration using three 15 μL injections (30 μL/min, for 30 seconds) of 10 mM glycine hydrochloride, pH1.7. Association and dissociation rates for each cycle were determined by fitting of the biosensor data to a simple 1:1 association model using the provided instrument analysis software to extract the kₒₙ and koff rate constants; the equilibrium binding constant KD was calculated using the relationship Kd=koff/kₒₙ.

The target of test [6] is T1, human LAIR1 on cells. Description: in vivo receptor occupancy by FACS on splenocytes, CD4 T cells; fit table; log10 of the dose, unit not given.
The target in test [7] is T1, human LAIR1 on cells. Description: flow cytometry, Jurkat-hLAIR1+ cells. On the procedure:
as §1

The target of test [8] is T1, human LAIR1 on cells. Description: flow cytometry, primary human CD8+ T cells (endogenous LAIR1). On the procedure:
as §1

Test [9] has as its target T1, human LAIR1 on cells. Description: in vivo receptor occupancy by FACS on splenocytes, CD8 T cells; fit table; log10 of the dose, unit not given. From the text: Human peripheral blood mononuclear cells (PBMCs) were engrafted into NSG mice where the human immune cells recognize the mouse as foreign and mount an immune response resulting in Graft versus Host Disease (GvHD). […] Blood was obtained on day 5 by retro-orbital sinus and day 8 by cardiac puncture and processed for analyses of serum cytokines (MSD human pro-inflammatory cytokine panel) and drug exposure (antigen capture ELISA).

Test [10] addresses T1, human LAIR1 on cells. Description: cell-based or functional assay. The source holds these as a separate data set.
Test [11] addresses T1, human LAIR1 on cells. Description: cell-based or functional assay. This is another data set of the same source.
Test [12] concerns the target T1, human LAIR1 on cells. Description: cell-based or functional assay. The source holds these as a separate data set.
The target of a further test is T5, Human C1q (human, UniProt P02745 23-245; P02746 28-253; P02747 29-245).
T5 construct: Bought (MS Biomedical); also called complement component C1q
Description: ELISA: antibody coated on the plate at the concentration shown, human C1q added at 10 ug/mL, detection with sheep anti-human C1q-HRP, OD450.

The target of test [13] is T1, human LAIR1 on cells. Description: in vivo receptor occupancy by FACS on splenocytes, Treg; fit table; log10 of the dose, unit not given.

T5 sequence (P02745 23-245 limits assumed, chain 1 of 3): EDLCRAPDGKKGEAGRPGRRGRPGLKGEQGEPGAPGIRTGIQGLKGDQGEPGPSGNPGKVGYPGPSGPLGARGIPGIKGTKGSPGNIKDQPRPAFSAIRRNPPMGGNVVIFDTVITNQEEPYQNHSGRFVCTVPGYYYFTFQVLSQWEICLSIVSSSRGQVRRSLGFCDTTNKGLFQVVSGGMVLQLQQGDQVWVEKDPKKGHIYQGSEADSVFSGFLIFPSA
T5 sequence (P02746 28-253 limits assumed, chain 2 of 3): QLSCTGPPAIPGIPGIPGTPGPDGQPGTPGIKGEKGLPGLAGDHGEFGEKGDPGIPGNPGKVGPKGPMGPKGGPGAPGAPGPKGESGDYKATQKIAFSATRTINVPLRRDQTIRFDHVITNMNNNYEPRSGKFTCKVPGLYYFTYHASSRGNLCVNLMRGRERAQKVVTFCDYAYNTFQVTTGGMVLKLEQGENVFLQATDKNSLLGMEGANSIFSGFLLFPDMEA
T5 sequence (P02747 29-245 limits assumed, chain 3 of 3): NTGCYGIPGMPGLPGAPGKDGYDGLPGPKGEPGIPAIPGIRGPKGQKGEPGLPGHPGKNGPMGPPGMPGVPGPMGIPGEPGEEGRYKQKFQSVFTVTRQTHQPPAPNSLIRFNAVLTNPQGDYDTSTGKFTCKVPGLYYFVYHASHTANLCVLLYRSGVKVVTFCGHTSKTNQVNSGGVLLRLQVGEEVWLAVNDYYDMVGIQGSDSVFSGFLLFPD
Description for Human C1q: Testing was performed in duplicate wells. The plate was sealed and incubated overnight at 4° C. The coating reagent was removed from each well, and 200 μL/well of casein blocking reagent (Thermo) was added. The plate was sealed and incubated for 2 hours at room temperature (RT). Each well was washed 3 times with wash buffer (1×TBE with 0.05% Tween 20). One hundred microliters per well of Human C1q (MS Biomedical) at 10 μg/mL diluted in casein blocking reagent was added and incubated for 3 hours at RT. The plate was then washed three times with wash buffer before 100 μL/well of a 1:800 times dilution of Sheep anti-human C1q-HRP (Abcam #ab46191) in casein blocker was added and incubated for 1 hour at RT. The plate was washed 6 times with wash buffer, and 100 μL/well of TMB Substrate (Pierce) was added to each well and incubated for 7 minutes. […] Optical density was immediately measured using a colorimetric microplate reader set to 450 nm.

B1: mAb4 (antibody, human IgG4 S228P, kappa)
heavy: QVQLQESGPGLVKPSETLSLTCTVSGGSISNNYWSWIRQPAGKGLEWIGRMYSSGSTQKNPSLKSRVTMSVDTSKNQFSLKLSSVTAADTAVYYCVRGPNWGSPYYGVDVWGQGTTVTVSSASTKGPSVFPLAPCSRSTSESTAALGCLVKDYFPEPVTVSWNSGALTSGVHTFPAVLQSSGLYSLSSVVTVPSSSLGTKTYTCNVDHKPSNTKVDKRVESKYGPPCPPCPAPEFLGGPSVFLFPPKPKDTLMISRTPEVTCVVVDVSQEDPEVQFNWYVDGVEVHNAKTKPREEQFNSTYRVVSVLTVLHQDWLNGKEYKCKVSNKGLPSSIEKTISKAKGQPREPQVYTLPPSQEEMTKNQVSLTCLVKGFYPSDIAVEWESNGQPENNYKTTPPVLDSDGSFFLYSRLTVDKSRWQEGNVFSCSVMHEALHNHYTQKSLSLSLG
light: DIVMTQSPLSLPVTPGEPASISCRSSPSLLHSDGYNWLDWYLQKPGQSPQLLIYLGSNRASGVPDRFSGSGSGTDFTLKISRVEAEDVGVYYCMQAHQTPFTFGQGTKVEIKRTVAAPSVFIFPPSDEQLKSGTASVVCLLNNFYPREAKVQWKVDNALQSGNSQESVTEQDSKDSTYSLSSTLTLSKADYEKHKVYACEVTHQGLSSPVTKSFNRGEC
notes: also called anti-human LAIR1 mAb4; LAIR1 agonist antibody
For the molecule B1, in the test with human LAIR1 on cells [1], the “IC50 of antibody activity, Jurkat-hLAIR1+ NFAT” value (from here on “IC50 of antibody activity”) stood at 0.00666 mg/L and the “Inhibition of NFAT Activity (% inhibition vs. no antibody), Jurkat-hLAIR1+” value is 60.4%. For the same molecule, the “Inhibition of NFAT Activity (% inhibition vs. no antibody), Jurkat-cyLAIR1+” value in test [2] amounted to 65.5%. The molecule also returned a 50% effective concentration (EC50) with human LAIR1 on cells [3] of 0.0162 mg/L. Moreover, in the test with LAIR2, the binding result was “no binding (tested: 10 ug/ml)”. In test [4], this molecule had an EC50 of 0.0893 mg/L. Moreover, in test [5], the affinity, expressed as Kd, was 0.291 nM; the koff was found to be 0.000317 s⁻¹; the on-rate (kon) came out at 1.09e+06 M⁻¹ s⁻¹. Further, in the test with human LAIR1 on cells [6], the “LogIC50 of % receptor occupancy, CD4 T cells” value was -0.933. This molecule returned a 50% effective concentration (EC50) with human LAIR1 on cells [7] of 0.0565 mg/L. Moreover, the midpoint of the response with human LAIR1 on cells [8], the EC50, lay at 0.0349 mg/L. Also, the “LogIC50 of % receptor occupancy, CD8 T cells” value with human LAIR1 on cells [9] was -0.864. Besides, in the test with human LAIR1 on cells [10], the “IC50 of inhibition of B cell IL-6 response to BCR stimulation” value was 0.0002 nM and 0.03 ng/mL; the “IC50 of inhibition of Jurkat-hLAIR1+ NFAT activation” value was found to be 0.045 nM. Also, in the test with human LAIR1 on cells [11], the “Inhibition of IFN-γ response at 1 µg/mL (% inhibition vs. no antibody), primary human T cells” value turned out to be 41.1%. Besides, the “Inhibition of IL-6 response at 8 ng/mL (% inhibition vs. no antibody), primary human B cells” value with human LAIR1 on cells [12] came to 42.7%. In addition, in the test with Human C1q, the binding result is given as “no binding (tested: 10 ug/mL)”. The “LogIC50 of % receptor occupancy, Treg” value in the test with human LAIR1 on cells [13] was -0.771.

B2: mAb2 (antibody, human IgG2, kappa)
heavy: QVQLQESGPGLVKPSETLSLTCTVSGGSISNNYWSWIRQPAGKGLEWIGRMYSSGSTQKNPSLKSRVTMSVDTSKNQFSLKLSSVTAADTAVYYCVRGPNWGSPYYGVDVWGQGTTVTVSSASTKGPSVFPLAPSSRSTSESTAALGCLVKDYFPEPVTVSWNSGALTSGVHTFPAVLQSSGLYSLSSVVTVPSSNFGTQTYTCNVDHKPSNTKVDKTVERKCCVECPPCPAPPVAGPSVFLFPPKPKDTLMISRTPEVTCVVVDVSHEDPEVQFNWYVDGMEVHNAKTKPREEQFNSTFRVVSVLTVVHQDWLNGKEYKCKVSNKGLPAPIEKTISKTKGQPREPQVYTLPPSREEMTKNQVSLTCLVKGFYPSDIAVEWESNGQPENNYKTTPPMLDSDGSFFLYSKLTVDKSRWQQGNVFSCSVMHEALHNHYTQKSLSLSPG
light: B1 light
notes: also called anti-human LAIR1 antibody mAb2
Regarding B2, in the test with human LAIR1 on cells [1], the “IC50 of antibody activity” value is 0.00858 mg/L and the “Inhibition of NFAT Activity (% inhibition vs. no antibody), Jurkat-hLAIR1+” value turned out to be 49.8%. Besides, the “Inhibition of NFAT Activity (% inhibition vs. no antibody), Jurkat-cyLAIR1+” value in test [2] came to 59.6%. For the same molecule, in the test with human LAIR1 on cells [3], it took 0.0288 mg/L to reach a half-maximal effect (EC50). This molecule registered a concentration for a half-maximal effect (EC50) in test [4] of 0.0824 mg/L. Moreover, in test [5], the Kd came out at 0.312 nM, the off-rate (koff) was 0.000341 s⁻¹ and the on-rate constant (kon) was determined as 1.09e+06 M⁻¹ s⁻¹. In the test with human LAIR1 on cells [7], a half-maximal effect (EC50) was put at 0.058 mg/L. Besides, the midpoint of the response with human LAIR1 on cells [8], the EC50, lay at 0.0414 mg/L. Further, the “Inhibition of IFN-γ response at 1 µg/mL (% inhibition vs. no antibody), primary human T cells” value with human LAIR1 on cells [11] came out at 45.8%. The “Inhibition of IL-6 response at 8 ng/mL (% inhibition vs. no antibody), primary human B cells” value with human LAIR1 on cells [12] was determined as 35.4%.

B3: mAb1 (antibody, human IgG2, kappa)
heavy: QVQLQESGPGLVKPSETLSLTCTAFGGSISGHYWSWIRQPAGKGLEWIGRIYPSGGTNKNPSLKSRVTMSVDTSKNQFSLKLSSVTAADTAVYYCVRDYWDDYYGMDVWGQGTTVTVSSASTKGPSVFPLAPSSRSTSESTAALGCLVKDYFPEPVTVSWNSGALTSGVHTFPAVLQSSGLYSLSSVVTVPSSNFGTQTYTCNVDHKPSNTKVDKTVERKCCVECPPCPAPPVAGPSVFLFPPKPKDTLMISRTPEVTCVVVDVSHEDPEVQFNWYVDGMEVHNAKTKPREEQFNSTFRVVSVLTVVHQDWLNGKEYKCKVSNKGLPAPIEKTISKTKGQPREPQVYTLPPSREEMTKNQVSLTCLVKGFYPSDIAVEWESNGQPENNYKTTPPMLDSDGSFFLYSKLTVDKSRWQQGNVFSCSVMHEALHNHYTQKSLSLSPG
light: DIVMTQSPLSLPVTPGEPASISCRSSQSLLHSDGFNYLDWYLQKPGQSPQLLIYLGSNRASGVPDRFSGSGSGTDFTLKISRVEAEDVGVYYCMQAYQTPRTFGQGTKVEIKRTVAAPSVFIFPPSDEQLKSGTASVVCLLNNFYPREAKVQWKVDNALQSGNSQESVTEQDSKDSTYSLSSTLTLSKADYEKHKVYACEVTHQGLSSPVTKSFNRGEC
notes: also called anti-human LAIR1 antibody mAb1
With B3, in the test with human LAIR1 on cells [1], the “IC50 of antibody activity” value was 0.00942 mg/L and the “Inhibition of NFAT Activity (% inhibition vs. no antibody), Jurkat-hLAIR1+” value is 54.2%. Further, the “Inhibition of NFAT Activity (% inhibition vs. no antibody), Jurkat-cyLAIR1+” value in test [2] came out at 44.2%. Moreover, in the test with human LAIR1 on cells [3], it took 0.037 mg/L to reach a half-maximal effect (EC50). This molecule also displayed a concentration for a half-maximal effect (EC50) in test [4] of 0.0784 mg/L. Besides, in test [5], binding was characterised by a dissociation constant (Kd) of 0.121 nM, the koff amounted to 0.000174 s⁻¹ and the kon stood at 1.44e+06 M⁻¹ s⁻¹. The molecule further yielded an EC50 with human LAIR1 on cells [7] of 0.0548 mg/L. In addition, in the test with human LAIR1 on cells [8], the concentration giving a half-maximal response (EC50) was 0.0489 mg/L. The “Inhibition of IFN-γ response at 1 µg/mL (% inhibition vs. no antibody), primary human T cells” value with human LAIR1 on cells [11] turned out to be 35.7%. For the same molecule, in the test with human LAIR1 on cells [12], the “Inhibition of IL-6 response at 8 ng/mL (% inhibition vs. no antibody), primary human B cells” value stood at 60.2%.
